Data as given in the DeepSol protein solubility set.

Assay: soluble on expression in E. coli; label from the status in PepcDB or PDB records

Row | Sequence | soluble on expression in E. coli
1 | MGSDKIHHHHHHMSDRLDEVDKRILYNLVRDARNTSAPDIADEVNVSAGTIRNRITHLEAAGIIRGYHAVVSYPQVGGRLTNLYICTSPVPDRDRLSKQVAEIPGVVSVRQLMKGRSNLHVTAVGDDMQELTRIANDLSAIGLDIEEENLLQSEEIRPYHEFGPDDSQDGHTIADFMELSGGAEVVELSVAADAEIAGHTLREANERGVIESDVLVVSIERDDEMLTPRGDTRVRPDDLVTVFCRGGISQETLSVFGKRGSATET | not soluble
2 | LDNAPLLELDVQEWVNHEGLSNEDLRGKVVVVEVFQMLCPGCVNHGVPQAQKIHRMIDESQVQVIGLHSVFEHHDVMTPEALKVFIDEFGIKFPVAVDMPREGQRIPSTMKKYRLEGTPSIILADRKGRIRQVQFGQVDDFVLGLLLGSLLSETD | not soluble
3 | MHHHHHHSSGRENLYFQGTIDDLFIFKRKLGSGAFGDVHLVEERSSGLERVIKTINKDRSQVPMEQIEAEIEVLKSLDHPNIIKIFEVFEDYHNMYIVMETCEGGELLERIVSAQARGKALSEGYVAELMKQMMNALAYFHSQHVVHKDLKPENILFQDTSPHSPIKIIDFGLAELFKSDEHSTNAAGTALYMAPEVFKRDVTFKCDIWSAGVVMYFLLTGCLPFTGTSLEEVQQKATYKEPNYAVECRPLTPQAVDLLKQMLTKDPERRPSAAQVLHHEWFKQA | soluble
4 | MQYINESATVSASNNVEKLRKQGLKIYNFGIGEPDFTTPEGIIDYAFEMAKQGKTHYTPSAGIMELREKIASKLKTRNRIDANAENVLVTPTKFGINLAMMVILNPGDEVIIPDPYYVSYPDIVKLAGGKPVPVRTTDDYDIDLDEMRKFVTPRTRAIILNNPNNPTGKVLSEKEIRDLVDFALENDIYIVSDEIYEDLIYEGSLYSPASMGKEAFEHTITLNGFSKGYAMTGWRIGYFVATEEIVEAANIIQQQTITCASSISQYAALRALDDNESPARMRSEFRKRRDLAYGILSESTDMKVHKPEGAFYMFPGYSKDIPSEKIAEMLLNQEHVVVTPGSAFGDRGRHHFRISFATSEDIIKEGLERLVKFMHTL | soluble
5 | MGHHHHHHSHGTRAFGARRNTIDSTSSFSQFRNLSHRSLSIGRASGTQGSLDTGSDLGDFMDYDPNLLDDPQWPCGKHKRVLIFPSYMTTVIDYVKPSDLKKDMNETFKEKFPHIKLTLSKIRSLKREMRKLAQEDCGLEEPTVAMAFVYFEKLALKGKLNKQNRKLCAGACVLLAAKIGSDLKKHEVKHLIDKLEEKFRLNRRELIAFEFPVLVALEFALHLPEHEVMPHYRRLVQSS | soluble
6 | MWKMLSSEYSILLIDDDADVLDAYTQLLEQSGYRVFACNNPFEAQAWIQPDWPGIVLSDVCMPGCSGIDLMMLFHQDDQQLPILLITGHGDVPMAVDAVKKGAWDFLQKPVDPGKLLSLVEEALRQRQSIIARRQYCQQTLQVELIGRSEWINQYRRRLQQLSETDIAVWLYGAPGTGRMTGARYLHQFGRNAQGEFVYRELTPDNAPQLNDFIALAQGGTLVLSHPEHLTREQQYHLVQLQSQEHRPFRLIGIGDTSLVELAASNHIIAELYYCFAMTQIACLPLTQRPDDIEPLFRHYLCKACQRLNHPVPEVGKEMLKEMMRRMWPNNVRELANAAELFTVGVLPLAETANPLMHVGTPTPLDRRVEDAERQIITEALNIHQGRINEVAEYLQIPRKKLYLRMKKYGLSKEHYKI | not soluble
7 | MSLKKKVVIVGGGFTGLNTARILSNRKDVEVTLIDRKNYHLFQPLLYQVAMAALGEGDIATPLRNMLAGYDNVTVFKGNVCNVDLEQKKVKTDFGDIEYDYLVLACGAQHHYFGKNDWEEHAPGLKNLAQASEIRRRVMEAYEAAERTNDMKERKKQLTFVIVGGGPTGVELAGSIGEMSRYTLSKFYRHIDPKLTRIFIVEAAERILGTFSPELSSKATRELEKLGVQVWTSSMVSDVDADGVQIGRERIEAATVLWAAGVKASEIGQNMGVQTDRSGRIMVEADLSLPGHPEVFVGGDQACYTLENGSTLPGMAPVAMQEGKAIGRMILDDLKGKPRKPFKYRDKGQMATIGRNRAIVEIGNLKFDGEGHHHHHH | soluble
8 | MKFSESVPLYKQPLSIPAEQLPQPDLNRNLPLSKYFLMMKTPEIGFQKAEVRDVLLRKVVLNEIEKIPAIWNCKNTYNANKLYPEVAVQVYRRTGTLLHTKMVQMVFKTAKDSLRNRLRDAISRKGLNEVDTEAHLLEWEYYPFVRFYREVSEGWEDRMRKTKQLEKREPAGGVGIVGDDENSMDVEEEPYENPDIIWDDVADPESPTTSMSSTLTSTQGTFTDYHPEEPYHNPEPPLIHPTLEYAAMKTASLQRNQQNKHVMEVRHGSETRTVVVMPTEPPRQQLNAPDFAEEMLQVTYQATRIAREQPERVKLLRKALFDTVLAFDQKEYNCVADLYRDLAEKSSR | not soluble
9 | GTDQYTLLANRVQNAVEARQSATEAERRRHRLEQILKTVPSCVVQLDRDGQFVFANQRAIDVLGLSQSELKDRLYNDPEWEIRDLDGHPIPDAELPFRQVLETGQPLSDARHTIHWPDGTEKVLSVNGAPLFDDD | not soluble
10 | MPVILNFSSERVLSESELEALRHVGRVSQSEQLVVRGRTMRLHHISFMDSFSVEPVSGGLLDRLSARGHRLLAENLEIQLNRGHTFLQAFRLYMEQSRATPCTRQNVSSAIQNKINSHAFTVSHQDFSCHEQHLNCPITLCIPETGVFVRNAKNSEICSLYDHNALTELIRRNAPHPLSREPFVPEMIVSKDECHFNLIEQYFCILATQNICTRI | not soluble
11 | MAHHHHHHMEYAQKSARLPRSAEEKEQWKRVIVILEHCPLQTIQTDRGFELLSDRHRSYHARHNQDPADWRPDVVHQCLLHLQDSPLNRAGMLEVFLRTKKQVCIAVDPRLRVPRNVRLFEKMMVSLLFKLKVRASTGYLSLLRVVGNPITDHIPAGTRLYRVEKDGDLIDPFTFCASCGYAADVLDAQRTDRKISLARRRLTSSTSGTLEETTAEAGTEEFAKAQRKAAERRQFQPFAFIIGGMSRGDVSVDYARPGEVSSIRLGDRGMSAAAVISTLLHGFEEEWLREDNEAC | soluble
12 | MKIGVFDSGVGGFSVLKSLLKARLFDEIIYYGDSARVPYGTKDPTTIKQFGLEALDFFKPHEIELLIVACNTASALALEEMQKYSKIPIVGVIEPSILAIKRQVEDKNAPILVLGTKATIQSNAYDNALKQQGYLNISHLATSLFVPLIEESILEGELLETCMHYYFTPLEILPEVIILGCTHFPLIAQKIEGYFMGHFALPTPPLLIHSGDAIVEYLQQKYALKNNACTFPKVEFHASGDVIWLERQAKEWLKL | soluble
13 | MAHHHHHHMRSNGAAHIGNNTFLAVTRDVTDTAFLFSSSFSPAEQLVRLPLSRKTRFLPHASLACGEAERSEYAESAARAGPPTKDVDVKEAVASAAAASTPLFCHSAHASPDGHKIAFISNVRRHHYIIDISVLPAAVCELEMPEVVQSVCWHTVAHHALCVLFISGDLTIYDTDQSYLGVIVPLYRRIALRPVIERRLADAEAAVHPSPSIPSTAPGTISPAKGATALDKEEVQSTRVKALAGKVSTTRLPPARQAHATTAEVAGFRSLVLHSGGGAIVAGSDIAHSPSYAVAERIDHDEMVPVSSADEVGAEGAASCPPIPKPVMLPTSQLDLVDMYALPPTESIPVILLLSSSGDVYAVHLGDDCLPVVATAAATDDGRVRTREEEVLRRAEVAAAPLSVEVYHLISGDSTGAAGDEAVAVGGCLVDEDAGTHAVFFLTANGLVKGAWVSKPDLLARHRVAHVRAVGSPNISFTLHLSGSLGARASLAPAVPSITHSVSMTLSQNVCVVRSGVAGETAFVMAFPRWDRRRQGWACWRPACADAREREREAAALPLLSTDAAPPSPVALRLPYDTRDSSIAVGCTELLLVPEVSTMDGLCERGSILVISLAAVLRSALYARCGKLGLHPSAGAGATSRLRDPHPAVLDLLNAVPECHRCWLRGVPEAEMSAATLNLVRRIEQLSGDVNRREMVQAQRRRRLVARVANLEGRVAEMDGMLAEWRQIILDGIVHRRGGDAFRTANARLRKVSTMLNELEQQL | not soluble
14 | MMSVPVMADEGTKWDWPLQKGDGVVNVLDDDDHFEVGLEAHNFLPKEIEVKNIGELLEIHMEHNVKKDSFGDVSRNITRCYKLPKNVDMKTIKSNLDSHGILHIEARKMH | not soluble
15 | MRGSHHHHHHGSMAEKNYVMAIDQGTTSSRAIIFDRNGKKIGSSQKEFPQYFPKSGWVEHNANEIWNSVQSVIAGAFIESGIRPEAIAGIGITNQRETTVVWDKTTGQPIANAIVWQSRQSSPIADQLKVDGHTEMIHEKTGLVIDAYFSATKVRWLLDNIEGAQEKADNGELLFGTIDSWLVWKLTDGQVHVTDYSNASRTMLYNIHKLEWDQEILDLLNIPSSMLPEVKSNSEVYGHTRSYRFYGSEVPIAGMAGDQQAALFGQMAFEKGMIKNTYGTGAFIVMNTGEEPQLSDNDLLTTIGYGINGKVYYALEGSIFVAGSAIQWLRDGLRMIETSPQSEELAAKAKGDNEVYVVPAFTGLGAPYWDSEARGAVFGLTRGTTKEDFVRATLQAVAYQSKDVIDTMKKDSGIDIPLLKVDGGAAKNDLLMQFQADILDIDVQRAANLETTALGAAYLAGLAVGFWKDLDELKSMAEEGQMFTPEMPAEERDNLYEGWKQAVAATQTFKFKAKKEGE | soluble
16 | MGSDKIHHHHHHLISTANITMQFGPEPLFENISAQFGHGNRYGLIGANGCGKSTFMKILSGALAPTSGNVSITPGLKVGNLSQDQFAFEQHSVIDTVIMGDMKLWKVKQEREAIYAKPDMTDEDGMRVGDLESEFAEMDGYSAESRAGEILIEAGIDESMHFGLMQQVPPGKKLRVLLAQALFANPDILLLDEPTNNLDIHTISWLETELNKRKCTMIIISHDRHFLNAVCTHMADIDYGELRIYPGNYEFFLAQSSLIREQLLAGNAKKSAEIDELQDFVNRFGANASKAKQASSRAKKMDKIKLDDVKSSSRITPSIRFEAGKKMHRQALILEGLGHGFDEGMLFTGGDLILEAGAKLAIIGENGVGKTTLLRCLVNELSHKEGVVKWSENAAVGYCPQDSSADFDNDLTLMDWMSQWRLPKHNDLMVRGMLGRLLFTEDDANKKARNCSGGEKNRLLFGKLMMQDVNVLIMDEPTNHMDMEAIEALNNALKDFEGTLIFVSHDREFVSSLATRVIDIKDKKLINFQGSFDEYLASQSEAQKIA | not soluble
17 | MITWADALGFRLVVVDSLGSADQEVVEAEDGEPFERHEMRRLTRPLWTRRKARKLSQGDLALLLGVSRASVQRWEDADKFPRPIALIAWAGRLECSVELDRVTSENDRPQPGREEA | not soluble
18 | MNGIKTGLGITPGEHIISADSALSRNIRQCFCLSCHGRLILQTDAQGAWFEHDLHALSEQQKADCVVLNPEKSHPYIEDMAMFLSPLPVVLEWHCVMCEQFFHGKKFCEACGTGIYCRAVCTKSVYSYQPDLFEDCGGAST | not soluble
19 | MKLAKLIPKRFFIRSKDRSTVSKSPTAFSFGSASSSSGQDCKNSGGDGGGGSVTPTSILPEVPSPYSYVEILQAFKLIDRDNDGAVSRHDLESLLSRLGPDPLTEEEINVMLKEVDCDGDGTIRLEELASRVVSLDPARDSTELKETFEFFDADRDGLISADELLRVFSTIGDERCTLDDCKRMIADVDEDGDGFVCFTEFSRMMDLQR | soluble
20 | MKALCLLLLPVLGLLVSSKTLCSMEEAINERIQEVAGSLIFRAISSIGLECQSVTSRGDLATCPRGFAVTGCTCGSACGSWDVRAETTCHCQCAGMDWTGARCCRVQPLEHHHHHH | not soluble
